Assay results as given in US10337022B2, “Methods of increasing root biomass in plants” (Agresearch Limited, priority 2014, dated 2019).

Experiments:
[1] = system: Wild-type (Col-0), Δppd mutant and transgenic PPD-OX seedlings; assay: Hypocotyl length response to exogenous GA or PAC; format: in vivo, Arabidopsis
Text: Giberellic acid (GA) treatment is known to reduce levels of the DELLA proteins (including RGA1) which are GA repressors; to determine the relationship between PPD, DELLA and the GA signalling pathway the applicants performed a yeast two-hybrid (Y2H) analysis between PPD and DELLA (RGA1) and applied gibberellic acid (GA) hormone and GA biosynthesis inhibitor (paclobutrazol, PAC) to wild type, Δppd mutant, and the Δppd mutant PPD over expressor (PPD-OX).
For exogenous applications of GA or PAC seeds were surface sterilised with 70% ethanol, 0.01% Triton X-100 for 10 min, followed by 100% ethanol for 5 min, air dried on sterile filter paper, and transferred to media plates containing half-strength MS salts, 1% sucrose and 0.8% agar. Plates were incubated for 5 days at 4° C. in the dark then transferred to 24° C. with a 14 h light/10 h dark daily cycle. Light was provided by fluorescent tubes (Philips TLD 58W/865) at an intensity of 100 μM m^−2 s^−1. Wild-type (Col-0) Δppd mutant and transgenic PPD-OX seedlings were grown for five days on medium with different concentrations of GA (FIG. 10A) or PAC (FIG. 10B). GA (ACROS organics), and PAC (Sigma-Aldrich) were dissolved in ethanol and acetone respectively, filter sterilised and incorporated into media plates. Ethanol or acetone (0.5%) was used for mock treatments. Seedlings were grown at 24° C. under a 14 h light/10 h dark daily cycle for 5 days before hypocotyl lengths were analysed (n=35). Each treatment was repeated twice; error bars=standard error of the mean.

BZR1 = target: T1, BZR1 (Arabidopsis thaliana, UniProt Q8S307); assay: BiFC interaction with BZR1 in Nicotiana benthamiana leaves; format: cell-based; settings: fully expanded leaves, co-expressed with cYFP-BZR1
T1 construct: expressed in transfected cells; host or cells: Nicotiana benthamiana leaves (Agrobacterium infiltration)
T1 sequence (Q8S307 1-336): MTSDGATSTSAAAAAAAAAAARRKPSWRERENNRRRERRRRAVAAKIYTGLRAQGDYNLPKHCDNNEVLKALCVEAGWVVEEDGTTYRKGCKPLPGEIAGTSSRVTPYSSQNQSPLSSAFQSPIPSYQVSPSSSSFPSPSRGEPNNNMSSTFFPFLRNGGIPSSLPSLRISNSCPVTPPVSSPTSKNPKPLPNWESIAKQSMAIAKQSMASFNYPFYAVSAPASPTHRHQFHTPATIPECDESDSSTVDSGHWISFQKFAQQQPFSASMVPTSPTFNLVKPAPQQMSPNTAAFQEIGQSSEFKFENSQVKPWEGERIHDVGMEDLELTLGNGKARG
Text: The binary BiFC-Gateway YFP vectors pDEST-VYNE(R)^GW (Venus aa 1-173) and pDEST-VYCE(R)^GW (Venus aa 156-239) with N-terminal fusions, were used to construct the following vectors; pDESTnYFP-BZR1, pDESTnYFP-NINJA, pDESTnYFP-PPD1, pDESTcYFP-BZR1, pDESTcYFP-PPD1, pDESTcYFP-PPD1Δppd, pDESTcYFP-PPD1Δtify and pDESTcYFP-PPD1Δjas*. […] Plasmids for co-immunoprecipitation: A synthesised DNA construct encoding PPD1 with a 3×c-myc C-terminal fusion was sub-cloned into pRSh1 to produce pRSh1-PPD1-3×c-myc, while the NINJA cDNA sequence was sub-cloned into pB7FWG2,0 (Karimi et al 2002, Trends Plant Sci. 7, 193-195) to construct pB7FWG2-NINJA-GFP.
For infiltration Agrobacterium tumefaciens GV3101 strains containing the binary vectors were re-suspended from plates and prepared for transformation as described for the LUC assay. All YFP and expression strains were mixed in ratios of 1:1 (vol/vol) with the addition of strain P19 at 1/10th volume. Five leaf discs were sampled from each infiltrated leaf after 40 h. Two hours prior to sampling for microscopic fluorescence observations leaves were infiltrated with a 1 μg/ml DAPI solution to stain nuclei. YFP fluorescence and DAPI staining was detected using an Olympus Fluoview FV10i confocal laser scanning microscope. Each experiment was repeated twice.

[2] = system: PEAPOD deletion mutant Δppd Arabidopsis thaliana ecotype Landsberg erecta; assay: Complementation of the Arabidopsis Δppd mutant leaf phenotype; format: in vivo; settings: optimized PEAPOD coding sequence under CaMV35s promoter, seedlings (FIG. 13)
Text: The functionality of any PEAPOD sequence can be confirmed by complementation of the Arabidopsis Δppd mutant leaf phenotype. Complementation of the Arabidopsis Δppd mutant leaf phenotype was first used to identify the Arabidopsis PPD gene (White 2006). This was seen by a restoration of the wild type flattened leaf phenotype and normal rosette shape as opposed to the domed leaf and the twisting of the rosette to a “propeller” phenotype.
Constructs above can be transformed into Arabidopsis by the floral dip infiltration method (Clough and Bent, 1998 Plant J 16, 735-43). The Δppd line is transformed to express the PPD polypeptides by standard techniques. Transgenic plants are confirmed by standard PCR analysis techniques with a combination of transgene-specific and T-DNA primers.
Complementation of the Δppd line to produce a wild-type leaf and rosette phenotype in T1 seedlings (the off-spring of the infiltrated plant) confirms PEAPOD functionality of the introduced gene, which can be shown in photographs.

ryegrass plants = assay: Root biomass analysis of ryegrass transformants; format: in vivo; settings: approximately 6 weeks in glasshouse
Protocol: (§1) An equal number (typically 4-10) of tillers were taken from WT and ryegrass plants transformed with Arabidopsis PPD under a constitutive promoter. Tillers were planted into plastic grow bags containing potting mix and pruned to be of equal height. […] The increase in root biomass was quantified by washing the roots under running water then removing the attached above ground portion (leaves and stems) and drying the roots at 65° C. for 48 hr then weighing the dry weights (Table 2).
as §1, with “one of three root promoters.” for “a constitutive promoter.”, “3 and Table 4)” for “2).”

Δppd Arabidopsis plants = assay: Root biomass analysis of Arabidopsis transformants; format: in vivo; settings: constitutive promoter, approximately 6 weeks in growth cabinet
Protocol: Seeds from WT and Δppd Arabidopsis plants transformed with T. repens PPD under a constitutive promoter were scarified and sown into potting mix. […] The increase in root biomass was quantified by washing the roots under running water then the attached above ground portion (leaves and stems) was removed and the roots dried at 65° C. for 48 hr then weighed.

## CC(C)(C)[C@@H](O)[C@@H](Cc1ccc(Cl)cc1)n1cncn1 (racemic) [PAC, paclobutrazol]
[1]; PPD-OX seedlings, PAC beyond 0.1 μM
  hypocotyl length: decrease in hypocotyl length
[1]; PPD-OX seedlings, PAC up to 0.1 μM
  hypocotyl length: relatively insensitive
[1]; wild type seedlings, 0 to 10 μM PAC
  hypocotyl elongation: dose dependent decrease of hypocotyl elongation
[1]; Δppd seedlings, 0 to 10 μM PAC, compared with wild type
  hypocotyl elongation: larger reduction in hypocotyl elongation

## C=C1C[C@]23C[C@@]1(O)CC[C@H]2[C@@]12C=C[C@H](O)[C@@](C)(C(=O)O1)[C@H]2[C@@H]3C(=O)O [GA, gibberellic acid]
[1]; PPD-OX seedlings, 1 μM GA, 5 days
  hypocotyl elongation: increased hypocotyl elongation
[1]; PPD-OX seedlings, up to 10 μM GA
  hypocotyl elongation: hypersensitive elongation
[1]; WT seedlings, 5-50 μM GA, 5 days
  hypocotyl elongation: elongation of the WT hypocotyl occurred in a dose dependent manner
[1]; wild type (WT) seedlings, 1 μM GA, 5 days
  hypocotyl elongation: did not promote elongation
[1]; Δppd seedlings, 1 μM GA, 5 days
  hypocotyl elongation: increased hypocotyl elongation
[1]; Δppd seedlings, up to 5 μM GA
  hypocotyl elongation: hypersensitive elongation

## nYFP-PPD1: PPD1 with N-terminal fusion of Venus aa 1-173 for BiFC
BZR1
  BiFC interaction with BZR1: no interaction was observed

B1: P. sitchensis PPD: Picea sitchensis PEAPOD protein, SEQ ID NO: 5 (protein, listed as Picea sitchensis)
chain: MRGGERAPGSRPSLDKPLEELTEEDIFQLTREDCRRYLKEKGMRRPSWNKSQAIQQVLSLKSLFESKPNQQSKKPSKHKPATLQFETARDSTFAQSSVSQEQSLGFSWSKEVLDKGTAERQRLCSDSQEAHEIPRLGSKPPQSNTEGKRCAHDGHGRKSAQPLVRLPANFKNDCSNRQSSHTSESQPDTLLRSDSFQQPTAQLTIFYAGMVNVYDDVPLDKA
[2]
  PEAPOD functionality by complementation of Δppd mutant: functionally equivalent
Ryegrass plants; constitutive promoter
  root growth beyond the grow bag compared to WT plants: increase in root biomass/growth/length/branching
Ryegrass plants; one of three root promoters
  root growth beyond the grow bag compared to WT plants: increase in root biomass/growth/length/branching

B2: A. trichopoda PPD: Amborella trichopoda PEAPOD protein, SEQ ID NO: 12 (protein, listed as Amborella trichopoda)
chain: MTAGDGSIRSILDKPLEELTEEDISQLTREDCRRYLKEKGMRRPSWNKYQAIQQVLSLKGLLEGKPCDDNSDVFSHRSPITVIPNVGSMREKEKAVNIADPEISGSHQPNFRREIHETTRERALPASDWPPSQEPVSQMTIFYAGAVNVYNDIPEDKVQAIIYLAGKSDSLQQTNVIRTGPDQCIASAASPSLNDLHSRRIHPTSNITTSQSLRVATSLPVGPHSEVPKTRKTSVQRFLEKRKDRGRLKGTLASGGSSKRGSSCLELYATSRLKSEGVATTTTQSNMNNVVVSPSNPRMPLNPGSCSWVEN
[2]
  PEAPOD functionality by complementation of Δppd mutant: functionally equivalent
Δppd Arabidopsis plants
  root growth beyond the pot compared to WT plants: increase in root biomass/growth/length/branching
Ryegrass plants; constitutive promoter
  root growth beyond the grow bag compared to WT plants: increase in root biomass/growth/length/branching
Ryegrass plants; one of three root promoters
  root growth beyond the grow bag compared to WT plants: increase in root biomass/growth/length/branching

B3: T. repens PPD: Trifolium repens PEAPOD protein, SEQ ID NO: 11 (protein, listed as Trifolium repens)
chain: MNGGSTVSFRSILDKPLNQLTEDDISQLTREDCRRFLKDKGMRRPSWNKSQAIQQVISLKALLEPTDDDLPAPVGVSSAIHHHHHHHPQPPQRNLNEAPVKGSDLDDTGFHTAEDLNKSTSTAVEIPTETNDANVVKSSGGCVASGSFGQMTIFYCGKVNVYDGVSPDKARSIMQLAACPSSFPQDNLLNKNAAVWASPCNIPIDKDVLFPNDTAILQVAQTDKMVEYPLQYREKGSIARDADVEGQASRNASLQRYREKRKDRGRSKGNKLTGITSSNFEMYLNLPVKLHASNGNSSRSSTDSPPQPRLPLVSGGSAENQPKVTLPIDLNDKDVQEC
[2]
  PEAPOD functionality by complementation of Δppd mutant: functionally equivalent
Δppd Arabidopsis plants
  root growth beyond the pot compared to WT plants: increase in root biomass/growth/length/branching
Ryegrass plants; constitutive promoter
  root growth beyond the grow bag compared to WT plants: increase in root biomass/growth/length/branching
Ryegrass plants; one of three root promoters
  root growth beyond the grow bag compared to WT plants: increase in root biomass/growth/length/branching

B4: P. abies PPD: Picea abies PEAPOD protein, SEQ ID NO: 4 (protein)
chain: MRGGGGADRLPARANLEKPLEDLSHEDIMQLTREDCRRYLIEKGMRRPSWNKSQAIQQVLSLKKLFESGPNDEKRSAATNRPNPDENLKEAASVSLLYGSQPESPSVVFASKDSDTFNLEWLAKTELPVLASQPRHIAQQNVFLSSLSAQQSGAQLTIFYSGNVNVYDDVPAEKAQEIMLLAGSGNYPPSSTCQSTRNTQQNAVRAAYPSNPTNTPFIHGVGPPLATVASSSVMSSPIHKESPITRKASLQRFLEKRKDRSRGKLGAPTISKKPLLMGMFMHPSIVHRQYWTDTAKRKSGKPDIPASISPTRPPHTPRRTSSDEQLSARHARGDISAQGGSLHNSN
modifications: Picea abies
Δppd Arabidopsis plants
  root growth beyond the pot compared to WT plants: increase in root biomass/growth/length/branching
